No end group written: not given here. *: point of attachment. 125I = [125I]*
Target: cell surface binding site for EMAP II N-terminal peptides on human mononuclear phagocytes (MPs); ≈73 kDa MP surface polypeptide
Experiment: radioligand binding on human MPs, 4 C, one-site model

RIGRIVTAKY(125I) [^125I-…]
Kd: 0.19 nM | N (molecules of peptide bound per cell) (molecules of peptide bound per cell): 8300

— patent US20020160957A1
